In article PMC3696110, “Hsp70 Oligomerization Is Mediated by an Interaction between the Interdomain Linker and the Substrate-Binding Domain” (PLoS ONE, 2013):
Several values for one entry are separate records, joined by “and”; a condition that tells them apart may be missing. Identical values can stand only once.

How the values were obtained:
[1] = Analytical SEC relative populations of oligomeric forms; assay type: physicochemical, human; settings: Superdex 75, 4 °C, 50 mM Tris pH 7.4, 150 mM KCl
Description: (§1) Analytical SEC was performed at 4 °C using a Superdex 75 10/300 GL column (GE Healthcare LifeSciences, Little Chalfont, U.K.), which had previously been calibrated using a mixture of standard proteins (Gel Filtration LMW Calibration Kit; GE Healthcare LifeSciences, Little Chalfont, U.K.). Typically, samples of the various constructs contained 70 µM of protein in 50 mM Tris buffer at pH 7.4, with 150 mM KCl, 5 mM MgCl2 and were incubated for 15 min (unless otherwise specified) at room temperature before being loaded onto the column for analysis. To evaluate the reversibility of the oligomerization process, the different elution peaks obtained for each protein variant were subsequently analyzed after concentrating the different fractions using AmiconUltra-0.5, Ultracel-3 Membrane, 3 kDa (Millipore, Bedford, MA, USA). A similar analysis was also performed at 6 µM concentration for all the protein variants to allow for a direct comparison between the results obtained by SEC and MS experiments.
The influence of substrate binding on the oligomerization properties of all the variants was examined by using the well-characterized Hsp70 substrate, the NR peptide (NRLLLTG, Genemed Synthesis Inc., San Antonio, TX, USA). A 14-fold excess of the peptide was added in each case to a fresh protein sample, incubated for 1 h at room temperature, unless otherwise specified, and then loaded onto the Superdex 75 10/300 GL column for analysis. The relative quantities of the different protein species were estimated by analysing the chromatographic profile using a Gaussian function for each elution peak (OriginPro 8, Originlab, Northampton, MA, USA) and measuring the relative area under each peak.

[2] = nESI-MS relative populations of oligomeric forms; assay type: physicochemical, human; settings: 6-15 µM protein, 150 mM ammonium acetate, pH 7.4, estimated error 5% (SD of 3-4 independent experiments)
Description: Prior to MS analysis, samples were buffer exchanged into 150 mM ammonium acetate, pH 7.4, using Micro Bio-spin 6 columns (Bio-Rad, Digilab Division, Cambridge, MA, USA). For all the experiments protein concentrations ranging from 6 to 18 µM were used. In the case of the substrate binding experiments, proteins were analyzed in the presence of a 1: 1 molar ratio of the NR peptide; this substrate concentration, lower than in the SEC experiments, was chosen to ensure adequate resolution of the various charge state series, which is critical for unambiguous assignment of substrate-bound states. Due to suppression effects during nESI ionization, a relatively limited set of molar ratios could be investigated by in this way.
nESI-MS spectra were obtained according to a previously published protocol on an orthogonal time-of-flight mass spectrometer with a Z-spray source (LCT, Waters, Manchester, UK) in positive ion mode using the following parameters: capillary voltage, 1500 V; sample cone voltage, 120 V (unless otherwise specified); extraction cone voltage, 1V; and ion transfer stage pressure, 8.8 mbar. Spectra were calibrated externally using a 33 mg/ml solution of cesium iodide. Data were acquired and processed with MassLynx software (Waters, Manchester, UK), and are shown with minimal smoothing and without background subtraction. The relative abundances of the different oligomeric states were estimated from the intensities of the most abundant charge states for each construct and are expressed as a percentage of the total intensity.

[3] = SEC/DLS of oligomeric species; assay type: physicochemical, human; settings: SEC, ΔLSBD641 at the same protein concentration, no NR peptide
Description: as §1, with “A similar analysis was also performed at 6 µM concentration for all the protein variants to allow for a direct comparison between the results obtained by SEC and MS experiments.” left out
Dynamic light scattering. Representative size distributions of SBD641 at different protein concentrations in Tris 50 mM, pH 7.4, 150 mM KCl, 5 mM MgCl2 were recorded at 25 °C on the Zetasizer Nano ZS instrument (Malvern Instruments Ltd.) at 633 nm after 1 h of incubation at room temperature. […] Some samples were analyzed after 1 h and 4 h incubation at room temperature and the same intensity size distributions were obtained. The samples were centrifuged for 15 min at 13200 rpm to remove dust particles and the scattered light was detected at an angle of 173°. […]

[4] = Thermal denaturation monitored by far-UV CD; assay type: physicochemical, human
Description: Protein structural stability was analyzed by monitoring the CD signal at 222 nm upon thermal denaturation. Thermal runs were performed from 5 to 90 °C at a rate of 1 °C. min^-1. Data points were acquired every 0.1 °C with a response time of 2 s and a bandwidth of […]. After thermal denaturation, each protein sample was cooled to the starting temperature, and a second denaturation curve recorded in order to analyse the degree of reversibility of the denaturation process. Analysis of the thermal unfolding curves was performed assuming a three-state unfolding model.

[5] = Secondary structure content from far-UV CD; assay type: physicochemical, human; settings: K2D software; 20 µM protein, 7 mM Tris pH 7.4, 170 mM KCl, 5 mM MgCl2; 25 °C
Description: Far-UV CD spectra for all protein variants were recorded using a Jasco J-810 spectropolarimeter equipped with a Peltier holder, using a 0.1 cm path length cuvette. Typically, samples contained 20 µM protein in 7 mM Tris buffer at pH 7.4, containing 170 mM KCl and 5 mM MgCl2. The far-UV CD spectra of all the variants in their native, thermally denatured and refolded states were recorded from 198 to 250 nm, and the spectrum of the buffer was systematically subtracted from the spectra of all protein samples. The secondary structure content was estimated from the far-UV CD spectrum for each protein variant using K2D software.

SBD556 = biological target: T1, SBD556 (Homo sapiens, UniProt P0DMV8, L542Y); assay: Fluorescence titration of dansyl-NR peptide binding
T1 construct: SBD556 (384-556), which lacks helices C, D and E and the C-terminal disordered region; hexa-His (N, cleaved yes); made in house; host or cells: E. coli BL21 (DE3) Gold, pET-28b
T1 sequence (P0DMV8 384-556 L542Y): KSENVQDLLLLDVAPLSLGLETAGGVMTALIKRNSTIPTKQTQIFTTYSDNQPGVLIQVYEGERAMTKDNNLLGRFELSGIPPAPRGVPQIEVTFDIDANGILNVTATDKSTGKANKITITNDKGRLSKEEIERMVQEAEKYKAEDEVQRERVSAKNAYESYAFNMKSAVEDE
Description: (§2) The interaction between the different Hsp70 variants and the NR peptide was studied in 50 mM Tris buffer at pH 7.4, with 150 mM KCl, and 5 mM MgCl2 using fluorescence spectroscopy by titrating different concentrations of chaperone into a solution containing 2 µM dansyl-NR peptide (N-terminally labeled; Genemed Synthesis Inc., San Antonio, TX, USA) after incubating the mixtures for 1 h at 25°C. The concentration of dansyl-NR peptide was calculated using an extinction coefficient at 327 nm of 4300 M^-1.cm^-1 [39]. The fluorescence emission spectrum of each sample was recorded from 400 to 630 nm after excitation at 330 nm, and the data reported correspond to the average intensity at the maximum emission wavelength of two different samples for which ten spectra were recorded. The increase in fluorescence signal was plotted as a function of chaperone concentration (Figure S2), and analyzed assuming single-site binding using the following equation:
(§3) ΔF=ΔFmaxΘL=ΔFmax/2LT[(PT+LT+Kd)−(PT+LT+Kd)^2−4PTLT] (1)
(§4) where ΘL is the fraction of bound ligand, ΔF is the increase in fluorescence intensity observed at a given concentration of Hsp70 variant, ΔF max is the increase in fluorescence at saturation, L T and P T are the total ligand and protein concentration respectively, and K d is the apparent dissociation constant of the complex. The fraction of bound ligand was plotted as a function of protein concentration in order to compare affinities between the different chaperone variants.

FL-Hsp70 = biological target: T2, FL-Hsp70 (Homo sapiens, UniProt P0DMV8); assay: as above; settings: 2 µM dansyl-NR peptide, fluorescence ex 330 nm; 50 mM Tris pH 7.4, 150 mM KCl, 5 mM MgCl2; 1 h at 25°C; single-site fit; average of two samples; read-out: Kd (apparent dissociation constant)
T2 construct: 35% of full-length Hsp70 (FL-Hsp70) exists as oligomeric species; hexa-His (N, cleaved yes); made in house; host or cells: E. coli BL21 (DE3) Gold, pET-28b
T2 sequence (P0DMV8 whole entry): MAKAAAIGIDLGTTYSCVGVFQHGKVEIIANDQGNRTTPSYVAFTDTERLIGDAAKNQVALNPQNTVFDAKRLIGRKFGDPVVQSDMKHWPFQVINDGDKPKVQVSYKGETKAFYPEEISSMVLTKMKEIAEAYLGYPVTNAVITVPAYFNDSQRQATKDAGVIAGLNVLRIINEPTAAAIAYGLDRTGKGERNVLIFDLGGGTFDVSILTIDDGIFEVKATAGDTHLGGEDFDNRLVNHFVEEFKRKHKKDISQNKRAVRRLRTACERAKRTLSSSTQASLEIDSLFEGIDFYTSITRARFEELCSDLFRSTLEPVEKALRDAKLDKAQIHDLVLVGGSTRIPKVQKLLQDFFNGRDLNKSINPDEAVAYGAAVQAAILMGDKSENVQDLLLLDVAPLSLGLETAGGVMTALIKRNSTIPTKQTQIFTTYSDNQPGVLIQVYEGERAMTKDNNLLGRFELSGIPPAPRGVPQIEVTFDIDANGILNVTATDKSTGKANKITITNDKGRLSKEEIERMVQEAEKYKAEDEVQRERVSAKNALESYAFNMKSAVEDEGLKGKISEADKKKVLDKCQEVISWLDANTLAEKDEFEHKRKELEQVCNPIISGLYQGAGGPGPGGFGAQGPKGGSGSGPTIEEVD
Description: as §2, §3, §4

ΔLSBD641 = biological target: T3, ΔLSBD641 (Homo sapiens, UniProt P0DMV8); assay: as above; settings: 2 µM dansyl-NR peptide, fluorescence ex 330 nm; 50 mM Tris pH 7.4, 150 mM KCl, 5 mM MgCl2; 1 h at 25°C; single-site fit; average of two samples; read-out: Kd (apparent dissociation constant)
T3 construct: ΔLSBD641 (394-641), corresponding to SBD641 without the first ten residues of the interdomain linker; hexa-His (N, cleaved yes); made in house; host or cells: E. coli BL21 (DE3) Gold, pET-28b
T3 sequence (P0DMV8 395-641, stated change not applied): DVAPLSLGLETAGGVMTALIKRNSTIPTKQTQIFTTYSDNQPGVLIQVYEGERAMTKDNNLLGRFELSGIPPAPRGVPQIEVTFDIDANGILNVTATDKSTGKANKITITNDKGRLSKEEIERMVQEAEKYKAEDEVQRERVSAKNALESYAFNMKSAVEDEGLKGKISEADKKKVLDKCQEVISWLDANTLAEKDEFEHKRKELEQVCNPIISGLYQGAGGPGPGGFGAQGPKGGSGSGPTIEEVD
Description: as §2, §3, §4

SBD641 = biological target: T4, SBD641 (Homo sapiens, UniProt P0DMV8); assay: as above; settings: 2 µM dansyl-NR peptide, fluorescence ex 330 nm; 50 mM Tris pH 7.4, 150 mM KCl, 5 mM MgCl2; 1 h at 25°C; single-site fit; average of two samples; read-out: Kd (apparent dissociation constant)
T4 construct: SBD641 (384-641), corresponding to the full-length SBD; hexa-His (N, cleaved yes); made in house; host or cells: E. coli BL21 (DE3) Gold, pET-28b
T4 sequence (P0DMV8 384-641): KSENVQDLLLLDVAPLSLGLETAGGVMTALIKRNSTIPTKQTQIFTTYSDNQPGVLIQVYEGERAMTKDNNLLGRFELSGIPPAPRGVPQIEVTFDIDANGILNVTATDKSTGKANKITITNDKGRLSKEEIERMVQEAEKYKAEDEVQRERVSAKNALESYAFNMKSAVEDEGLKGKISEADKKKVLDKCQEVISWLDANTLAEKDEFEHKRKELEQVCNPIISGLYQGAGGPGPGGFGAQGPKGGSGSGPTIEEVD
Description: as §2, §3, §4

[6] = previously reported; ref [S3]; cited from earlier work
Description: Supplementary file pone.0067961.s005.tif: Figure S4 Concentration dependency of the analytical SEC chromatograms of the 'C-term' variant. The protein concentrations used were 1µM (black line), 2µM (orange line), 5 µM (pink line), 10 µM (cyan line), 70 µM (red line) and 125 µM (green line). Essentially the same elution profile was found for all the protein concentrations used. At the top the chromatogram the previously reported Stokes radii of the standard proteins used to calibrate the column are reported: conalbumin (40.4 Å), ovalbumin (30.5 Å), carbonic anhydrase (23.6 Å) [S3], ribonuclease ...

[7] = 70 µM protein, 5 mM MgCl2, 15 min at room temperature, estimated error 3.5% (SD of 3-4 independent experiments)
[8] = 6-15 µM protein, 5 mM MgCl2, estimated error 3.5% (SD of 3-4 independent experiments)

Compound: ΔLSBD641: SBD641 without the first ten residues of the interdomain linker (SENVQDLLLL), residues 394-641
- Dimer population [1, 7]: 14%
- Monomer population [1, 7]: 86%
- Total oligomer population [1, 7]: 14%
- Dimer population [1, 8]: 9%
- Monomer population [1, 8]: > 90%
- Total oligomer population [1, 8]: 9%
- Monomer population ([1]; 6-15 µM protein, 5 mM MgCl2, estimated error 3.5% (SD of 3-4 independent experiments), listed as ∆LSBD641): 91%
- Dimer population [2]: 8%
- Monomer population [2]: > 90%
- Total oligomer population [2]: 8%
- Trimer population [2]: 0%
- Monomer population ([2]; listed as ∆LSBD641): 92%
- Oligomer fraction [3]: ca. 0.1
- ∆Hm, 1st transition ([4]; CD 222 nm, 20 µM protein, 7 mM Tris pH 7.4, 170 mM KCl, 5 mM MgCl2, three-state fit (C-term two-state), SE of fit): 45.6 ± 2.4 kcal/mol
- ∆Hm, 2nd transition ([4]; CD 222 nm, 20 µM protein, 7 mM Tris pH 7.4, 170 mM KCl, 5 mM MgCl2, three-state fit, SE of fit): 61.0 ± 1.1 kcal/mol
- Tm, 1st transition ([4]; CD 222 nm, 5 to 90 °C at 1 °C/min, 20 µM protein, 7 mM Tris pH 7.4, 170 mM KCl, 5 mM MgCl2, three-state fit (C-term two-state), SE of fit): 44.9 ± 0.3 °C
- Tm, 2nd transition ([4]; CD 222 nm, 5 to 90 °C at 1 °C/min, 20 µM protein, 7 mM Tris pH 7.4, 170 mM KCl, 5 mM MgCl2, three-state fit, SE of fit): 72.3 ± 0.1 °C
- Degree of irreversibility of overall protein thermal denaturation ([4]; far-UV CD): exactly the same behaviour
- Random-coil content estimated from far-UV CD [5]: 47%
- α-helix content estimated from far-UV CD [5]: 35%
- β-sheet content estimated from far-UV CD [5]: 18%

Compound: CC(C)C[C@H](NC(=O)[C@H](CC(C)C)NC(=O)[C@H](CCCNC(=N)N)NC(=O)[C@@H](N)CC(N)=O)C(=O)N[C@@H](CC(C)C)C(=O)N[C@H](C(=O)NCC(=O)O)[C@@H](C)O [NR peptide, NRLLLTG]
- Kd (SBD556; 2 µM dansyl-NR peptide, fluorescence ex 330 nm, 50 mM Tris pH 7.4, 150 mM KCl, 5 mM MgCl2, 1 h at 25°C, single-site fit, average of two samples, read-out: Kd (apparent dissociation constant)): 53 ± 16 µM
- Reduction of fluorescence intensity at saturation (Fmax) (SBD556; fluorescence titration, SBD556 vs other chaperone variants): ~25%
- Kd (FL-Hsp70): 9 µM and 8 to 10 µM
- Kd (ΔLSBD641): 8 ± 2 µM
- Kd (SBD641): 11 µM and 1 to 10 µM

Compound: carbonic anhydrase [reference compound]
- Stokes radius of SEC standard protein [6]: 23.6 Å
